Experimental data as given in PMC6497050.
Read-outs that look alike come from different tables or passages of the source.

Legend:
importin α7 [1] = target: importin α7 (UniProt O60684); experiment: fluorescence polarisation
importin α7 [2] = target: importin α7 (UniProt O60684); experiment: fluorescence polarisation; remark: listed apart in the source

Kd (importin α7 [1]): 1.3 µM
Kd (importin α7 [2]): 30.4 µM
Substance: wild type LANS (Light Activated Nuclear Shuttle) (from UniProt O49003 404-546) (designed binder)
